Laboratory results taken from patent US6414113B1, “Peptides binding to bone marrow stromal cell antigen” (Biomolecular Engineering Research Institute, priority 1998, dated 2002).
Where no end group is shown, it is not given here. The star is where a group is joined. Biotin = O=C1N[C@H]2[C@H](CS[C@H]2CCCCC(=O)*)N1

T1: BST-1 (Homo sapiens, UniProt Q10588)
T1 construct: made in house; host or cells: baculovirus (pVL1393); virus made in Sf9, protein expressed in High five insect cells
T1 sequence (Q10588 33-297): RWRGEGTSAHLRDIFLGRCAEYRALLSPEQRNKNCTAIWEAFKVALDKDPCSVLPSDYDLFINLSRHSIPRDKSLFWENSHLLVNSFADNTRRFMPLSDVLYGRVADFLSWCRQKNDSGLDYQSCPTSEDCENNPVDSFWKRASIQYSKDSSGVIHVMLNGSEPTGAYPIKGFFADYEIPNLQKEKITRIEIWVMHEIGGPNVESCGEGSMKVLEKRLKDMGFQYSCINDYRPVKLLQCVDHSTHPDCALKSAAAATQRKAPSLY

T2: soluble human bone marrow stromal cell antigen-1 (BST-1) (human, UniProt Q10588 33-297)
T2 construct: range 1-297; Expressed with baculovirus in High five insect cells, purified to 95% or more; The construct encodes codons 1-297; also called purified BST-1; soluble BST-1
T2 sequence (looked up): T1 sequence (Q10588 33-297)

B1: SNPb-1 (SNP-1 with an additional C-terminal Lys carrying biotin) (peptide)
peptide: HSQISGKYQRYLKDAK(Biotin)
B2: synthetic peptide SNP-1 (peptide)
peptide: HSQISGKYQRYLKDA
notes: 15-residue synthetic peptide, purity 95% or more; also called prototype SNP-1; original SNP-1
B3: bSNP-1 (SNP-1 biotinylated at the N-terminal) (peptide)
peptide: {Sulfo‑NHS‑LC‑Biotin}-HSQISGKYQRYLKDA
B4: phage SN-16 (phage expressing the peptide defined by SEQ ID NO: 2) (peptide)
peptide: DDVVYTNIHKWGRRE
notes: not shown: phage coat protein of the Fuse 5 vector to which the peptide is fused; not specified
B5: phage SN-1 (phage expressing the peptide defined by SEQ ID NO: 1) (peptide)
peptide: HSQISGKYQRYLKDA
notes: as for B4

Columns and labels:
BST-1 = biological target: T1, BST-1; assay: Inhibition of ADP-ribosyl cyclase activity of BST-1 (NGD method); assay type: biochemical; conditions: DTT 10 mM
Text: The fact that the peptide thus obtained inhibits ADP-ribosyl cyclase activity of BST-1 may be identified by comparing the ADP-ribosyl cyclase activity when measured in the absence of the peptide with the activity in the presence of the peptide. As previously mentioned, NAD is converted to cADP-ribose by ADP-ribosyl cyclase activity of BST-1, and therefore, the activity may be measured by allowing to react NAD with BST-1 and then quantitatively determining NAD and cADP-ribose after separation of them by anion-exchange chromatography (FEBS letters, 356, 244, 1994). Alternatively, nicotinamide guanine dinucleotide (NGD) may be used as a substrate instead of NAD, which is converted to cyclic guanosine-5′-diphosphate-ribose cGDP-ribose that can be fluorimetrically measured with an excitation wavelength of 300 nm and an emission wavelength of 410 nm, whereby the velocity of the formation of cGDP-ribose reflects ADP-ribosyl cyclase activity (J. Biol. Chem., […], 30260, 1994).
The abscissa is time course and the ordinate is fluorescence intensity. Purified BST-1 (4 μg/ml) was mixed with NGD (300 μM), and the mixture was allowed to react at 25° C. for 300 seconds, and then the synthetic peptide SNP-1 was added thereto at the concentration of 20 μM.
Inhibition of ADP-ribosyl cyclase activity of BST-1 by synthetic peptides was tested by means of the NGD method previously mentioned. […]

[1] = biological target: T2, soluble human bone marrow stromal cell …; assay: Biacore SPR, BST-1 amine-coupled on CM5, equilibrium values at 400-2000 nM peptide, Scatchard plot
Protocol: BST-1 was immobilized at 2800 resonance unit (RU) on the sensor chip CM5 of a bio-sensor for analyzing protein interactions, BIACORE (Biacore K.K.), by means of an amine coupling method. The synthetic peptides were passed through the sensor chip at the flow rate of 40 µl/min at the concentration of from 400 nM to 2000 nM. Equilibrium binding value was obtained for each concentration. Based on the equilibrium binding values, dissociation constants were calculated by means of Scatchard plot method (Hulme E. C.; Receptor-binding studies, a brief outline, in Receptor Biochemistry: A Practical Approach, 303–315, IRL press, 1990).

bovine serum albumin = biological target: T3, bovine serum albumin (bovine, UniProt P02769 25-607); assay: phage ELISA, well coated with BSA alone
T3 construct: also called BSA
T3 sequence (P02769 25-607 limits assumed): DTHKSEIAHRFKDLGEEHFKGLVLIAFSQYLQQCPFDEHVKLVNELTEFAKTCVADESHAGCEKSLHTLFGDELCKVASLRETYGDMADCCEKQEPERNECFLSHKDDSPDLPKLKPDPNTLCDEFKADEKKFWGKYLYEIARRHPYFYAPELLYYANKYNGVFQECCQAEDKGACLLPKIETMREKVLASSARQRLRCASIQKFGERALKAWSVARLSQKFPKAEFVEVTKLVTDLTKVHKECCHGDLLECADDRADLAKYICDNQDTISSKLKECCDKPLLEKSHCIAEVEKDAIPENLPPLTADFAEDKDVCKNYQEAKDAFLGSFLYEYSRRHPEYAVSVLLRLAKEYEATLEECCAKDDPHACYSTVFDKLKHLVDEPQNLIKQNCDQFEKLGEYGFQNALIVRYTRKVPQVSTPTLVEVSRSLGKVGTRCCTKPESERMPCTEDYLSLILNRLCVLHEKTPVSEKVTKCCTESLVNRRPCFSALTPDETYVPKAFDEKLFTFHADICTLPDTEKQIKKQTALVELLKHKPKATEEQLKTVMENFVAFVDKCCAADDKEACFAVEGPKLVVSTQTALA

Molecule | Kd [1] [nM] | binding result (bovine serum albumin) | further results
O[C@@H](CS)[C@@H](O)CS [DTT] | – | – | ADP-ribosyl cyclase activity of BST-1 after addition of reducing agent (BST-1): complete disappearance
B1 | 810 | – | –
B2 | 510 | – | –
B3 | 530 | – | –
B4 | – | no binding | –
B5 | – | no binding | –
